# Where no end group is shown, it is not given here.
# T1: Hdm2 peptide, residues 275-289 of SEQ ID NO:8 (H2 segment) (human)
# T1 construct: also called H2 peptide; one from the H2 segment
# T1 peptide: Ac-VYQVTVYQAGESDTD-NH2
# B1: human p14Arf peptide, residues 16-30 (contains the human A2 motif) (peptide)
# peptide: Ac-GPPRVRVFVVHIPRL-NH2
# notes: the peptide tested is the 15-mer 16-30; also called fourth peptide of the human library; human A2 (16-30)
# B2: mouse Arf motif peptide A2 (16-30) (peptide)
# peptide: Ac-RPLQERVFLVKFVRS-NH2
# notes: Same limits as the fourth peptide of the mouse library, so possibly a member of group m12; also called mouse A2
# B3: mouse Arf motif peptide A1 (1-14) (peptide)
# peptide: Ac-MGRRFLVTVRIQRA-NH2
# notes: the peptide tested spans 1-14; also called mouse A1
# B4: human Arf motif peptide A1 (1-14) (peptide)
# peptide: Ac-MVRRFLVTLRIRRA-NH2
# notes: the peptide tested spans 1-14; also called human A1
# B5: mArfN37 (N-terminal fragment of mouse p19Arf, residues 1-37, His tag cleaved) (peptide)
# chain: MGRRFLVTVRIQRAGRPLQERVFLVKFVRSRRPRTAS
# modifications: not fully specified
# notes: Tag-cleaved form used in CD, NMR and gel filtration; also called 15N-mArfN37
# B6: 41-55 (mouse Arf peptide) (peptide)
# peptide: Ac-AFVNMLLRLERILRR-NH2
# notes: also called mouse p19Arf library peptide, residues 41-55
# B7: 1-15 (mouse Arf peptide) (peptide)
# peptide: Ac-MGRRFLVTVRIQRAG-NH2
# notes: also called mouse p19Arf library peptide, residues 1-15
# B8: 21-35 (mouse Arf peptide) (peptide)
# peptide: Ac-RVFLVKFVRSRRPRT-NH2
# notes: also called mouse p19Arf library peptide, residues 21-35
# B9: 11-25 (mouse Arf peptide) (peptide)
# peptide: Ac-IQRAGRPLQERVFLV-NH2
# notes: also called mouse p19Arf library peptide, residues 11-25
# B10: 26-40 (mouse Arf peptide) (peptide)
# peptide: Ac-KFVRSRRPRTASCAL-NH2
# notes: also called mouse p19Arf library peptide, residues 26-40
# B11: 6-20 (mouse Arf peptide) (peptide)
# peptide: Ac-LVTVRIQRAGRPLQE-NH2
# notes: also called mouse p19Arf library peptide, residues 6-20
# Target: T2, Hdm2 210-304 (residues 210-304 of SEQ ID NO:8, His tag cleaved) (human, UniProt Q00987 210-304)
# T2 construct: Non-His-tagged analyte in SPR; also used in CD, NMR, gel filtration
# Assay: CD-based binding assay
# T2 sequence (Q00987 210-304): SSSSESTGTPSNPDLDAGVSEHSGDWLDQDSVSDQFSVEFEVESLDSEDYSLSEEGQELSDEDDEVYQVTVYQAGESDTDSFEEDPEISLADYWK
row,Binder,binding result
1,B1,binds
2,B2,binds
3,B3,binds
4,B4,binds

# Target: T3, Hdm2 210-275 (residues 210-275 of SEQ ID NO:8, His tag cleaved) (human, UniProt Q00987 210-275)
# Assay: CD-based binding assay
# T3 sequence (Q00987 210-275): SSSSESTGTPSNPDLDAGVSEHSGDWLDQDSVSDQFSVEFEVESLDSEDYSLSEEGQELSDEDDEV
row,Binder,binding result
1,B1,no binding
2,B2,no binding
3,B3,binds
4,B4,binds

# Target: T2, Hdm2 210-304 (residues 210-304 of SEQ …)
# Assay: CD titration, ellipticity at 200 nm
# Description: (§1) Further, saturable binding is also observed when the Hdm2 fragments were added to an excess of mArfN37.
row,Binder,Kd [µM]
1,B5,< 5

# Target: T3, Hdm2 210-275 (residues 210-275 of SEQ …)
# Assay: CD titration, ellipticity at 200 nm
# Description: as §1
row,Binder,Kd [µM]
1,B5,< 5

# Target: T1, Hdm2 peptide, residues 275-289 of SEQ …
# Assay: CD titration, failure to induce structure
row,Binder,binding result
1,B1,no binding (tested: 1-10 µM (concentrations used))
2,B2,no binding (tested: 1-10 µM (concentrations used))
3,B3,no binding (tested: 1-10 µM (concentrations used))
4,B4,no binding (tested: 1-10 µM (concentrations used))

# Target: T4, His-tagged Hdm2 210-304 (human, UniProt Q00987 210-304)
# T4 construct: Captured on the C-1 chip by anti-His antibody for the Arf peptide library SPR; Tag placed first here
# Assay: SPR, His-tagged Hdm2 210-304 captured by anti-His antibody, peptide injected 10 min, signal minus reference cell [a]
# Description: (§2) Reactive sites remaining on the surface were blocked by reaction with ethanolamine. The His-tagged ligand was attached to the antibody by injecting a 5-10 μg/ml solution of the ligand in 10 mM HEPES, 150 mM NaCl, pH 7.4 (HBS-N buffer, Biacore) at a flow rate of 10 μL/min through the flow cell. A reference cell was prepared similarly except that no His-tagged ligand was added. Binding was measured by flowing the non-His-tagged analyte through the reference and ligand-containing flow cells in sequence. Prior to injection of ligands, the chip surfaces were equilibrated in HBS-N buffer. Changes in the SPR response due to solvent differences and the injection process were monitored by injection of HBS-N buffer alone. Regeneration of the chip surface to remove bound analyte and ligand was accomplished by two 100 μL injections of 10 mM glycine, pH 2.0 through both flow cells. Data reported is the difference in SPR signal between the flow cell containing analyte and the reference cell. Duplicate injections were made and the SPR response values reported are the average of these two injections.
# (§3) Two libraries of peptides 15 amino acids in length were synthesized based on the sequence of exon 1β of mouse p19^Arf and the entire sequence of human p14^Arf. The sequence for the first peptide in each library corresponded to the first 15 amino acids of the protein sequences. […] This approach yielded two libraries of overlapping peptides spanning mouse p19^Arf residues 1-64 and human p14^Arf residues 1-132. The ability of these peptides to bind Hdm2 fragments was determined using the surface plasmon resonance (SPR) technique with a Biacore 3000 instrument. […] Library peptides were allowed to flow over the Hdm2 surface, or over a control surface lacking an Hdm2 fragment.
# T4 sequence (Q00987 210-304): as the sequence (Q00987 210-304) above
row,Binder,binding result
1,B6,no binding
2,B2,binds
3,B7,binds
4,B8,binds
5,B9,no binding
6,"Ac-RRPRTASCALAFVNM-NH2 [mouse p19Arf library peptide, residues 31-45 (contains the NoLS RRPR)]",binds
7,B10,binds
8,B11,binds

# Target: T4, His-tagged Hdm2 210-304
# Assay: SPR, His-tagged Hdm2 210-304 captured by anti-His antibody, peptide injected 10 min, signal minus reference cell [b]
# Description: as §2, §3
row,Binder,binding result
1,B1,binds

# Reference: patent publication US20020045192A1 (ST JUDE CHILDREN S RESEARCH HOSPITAL, published 2002)
